Fewer inactive variants are shown than the library holds.
B1: TPR 5TU (parent)
chain: GGAUCUUCUCGAUCUAACAAAAAAGACAAAUCUGCCACAAAGCUUGAGAGCAUCUUCGGAUGCAGAGGCGGCAGCCUUCGGUGGCGCGAUAGCGCCAACGUUCUCAACUAUGACACGCAAAACGCGUGCUCCGUUGAAUGGAGUUUAUCAUG

Variants of: B1
Assay: polymerase ribozyme fitness, log enrichment relative to wild type (log ratio); higher = more active; in vitro selection for triplet polymerase activity
Summary of the method: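 Mutant libraries of each subunit of a heterodimeric triplet polymerase ribozyme were built by PCR and transcribed. Each library went through one round of in vitro selection in triplicate: annealing with biotinylated primer, partner subunit and triplets, frozen incubation at −7 °C, gel excision of extended constructs, streptavidin-bead capture and RT-PCR. Input and output libraries were Illumina-sequenced; only genotypes with ≥10 input reads and ≥1 read per output were kept. Fitness is log2(genotype enrichment/wild-type enrichment), using inverse-variance-weighted replicate averages.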

Row | Variant | polymerase ribozyme fitness (log ratio)
1 | A12C C32G G84U | ≤ -4.2
2 | C93A C96U | -3.3
3 | G25U C38U A47U U56G U61A G65C C79G C103G U134A | ≤ -4.2
4 | C93A U127A G133U G140U | ≤ -4.2
5 | C5A C76U | -0.144
6 | A41C U148G | ≤ -4.2
7 | A97G G152A | -3.19
8 | C75U G83U C129G U144G | ≤ -4.2
9 | A22U A120G U144A | 0.42
10 | A120G A137C | -4.08
11 | A12C G133C U145A | -1.11
12 | G25U A66U C93U G94U C125A G126U | ≤ -4.2
13 | C43U G67U | ≤ -4.2
14 | A40U C57G | 0.32
15 | G11C A115C | -2.86
16 | C36A C93U G100U | ≤ -4.2
17 | U56A G74C | -4.17
18 | C27G C87A | ≤ -4.2
19 | A16U G58U | -2.34
20 | A3G A39U G59C G83U | -3.56
21 | A49G G84A | -0.52

Row | Variant | polymerase ribozyme fitness (log ratio)
22 | G126C A150G | -2.81
23 | A12U U56A A115G | -2.11
24 | C5G A19G A24C A40U U55A G83U G86U | ≤ -4.2
25 | U82A A106U C116U G126U U145C | -2.88
26 | A23G C36U G50U G100A A107G C118G | ≤ -4.2
27 | A20U G48A G68U G83C C103G A138G G143C | ≤ -4.2
28 | A22C U144G | 0.903
29 | A12C A60U C75G G88C A91G U109G | ≤ -4.2
30 | A28U A29C U45A G58C C85U C105U A106G | ≤ -4.2
31 | C57A C72U A150U | -0.157
32 | U4C G11A G68A C72A G83U C93G G140A U148C | ≤ -4.2
33 | U15G G50U U61A C93G C105U A107G | ≤ -4.2
34 | A110U G128A | ≤ -4.2
35 | C32A A41C C51U G58A C69U C93U C108U | ≤ -4.2
36 | U55A A66G G92U A119C | ≤ -4.2
37 | G50A A150U | -1.41
38 | A23U G68C C76G G80C A89U U148G | ≤ -4.2
39 | G59U U148C | -1.18
40 | A21U A24C U33C G94A A107C | ≤ -4.2
41 | G50U A52C A64C G92C | ≤ -4.2
42 | A28U A29U G65A C95G C105G U111G A137C G152C | ≤ -4.2

Row | Variant | polymerase ribozyme fitness (log ratio)
43 | G94C C105A | -1.22
44 | A39C U53G C85U | -4.06
45 | G70A G86U | -3.77
46 | A41C C85U C87U G133C G143A | -4.18
47 | U55A U127G | -2.72
48 | C116U U144A | -0.259
49 | C123U | 0.225
50 | G50C U55G C63A C76G A91G C125G U145C | ≤ -4.2
51 | A19C C85U | -0.536
52 | C8U C10G A29U C85U C116U | ≤ -4.2
53 | U9G G92A C116U C125U U134C | ≤ -4.2
54 | C99A A115U A120G | -2.43
55 | G46A G67A G84U A97G C99U C116U | ≤ -4.2
56 | A20G C57A C69A C76U C96U | -1.94
57 | A17C C125G G126A | -3.65
58 | C8U C96U | -2.69
59 | C51G G62C C85A G143A | -1.5
60 | U56G U135A | -1.84
61 | C38U U45A G84U C129A A142C | ≤ -4.2
62 | A60C C85A C116A | -1.6
63 | U31G G83U G126C | -0.857

Row | Variant | polymerase ribozyme fitness (log ratio)
64 | A29C A49G C87A A150G | ≤ -4.2
65 | C27A A30U U44A C57A A97G A98U A119C A120G G128A | ≤ -4.2
66 | A60G A107U | -3.1
67 | C18G A24U U33A G124A U135A | ≤ -4.2
68 | G48A C54A U55G G58U A97G | -3.22
69 | A49G C51G | -2.66
70 | C38A C76A G92U G136A G152U | ≤ -4.2
71 | A49U G88A | ≤ -4.2
72 | U6G U53A | -0.949
73 | C57U G86U | -1.78
74 | U4C C85G C99U C125G | -3.5
75 | A64G A91G C123G | ≤ -4.2
76 | A3C C8U C18U A49G C87A | ≤ -4.2
77 | C14A G58A A89U G94U | -3.75
78 | A3C C69A C87G U146C C149U U151G | ≤ -4.2
79 | C27G A37C A47C C87G A115C | ≤ -4.2
80 | A3U G65A C85A | -3.12
81 | G50U G83A | -0.347
82 | A28G A52C U55A G67C C149G | ≤ -4.2
83 | A17U C87U | -1.75

Source: the RNAGym collection of RNA variant scans (doi:10.1073/pnas.2313332121)
